{
  "source": "paper PMC5607241",
  "about": "“Chimeric 14-3-3 proteins for unraveling interactions with intrinsically disordered partners” (Scientific Reports, 2017)",
  "binders": {"B1": {"name": "14-3-3σ Clu3 – HSPB6 phosphopeptide chimera, phosphorylated (pCH1) (other)", "chain": "GPHMERASLIQKAKLAEQAERYEDMAAFMKGAVEKGEELSCEERNLLSVAYKNVVGGQRAAWRVLSSIEQKSNEEGSAAAGPEVREYREKVETELQGVCDTVLGLLDSHLIKEAGDAESRVFYLKMKGDYYRYLAEVATGDDKKRIIDSARSAYQEAMDISKKEMPPTNPIRLGLALNFSVFHYEIANSPEEAISLAKTTFDEAMADLHTLSEDSYKDSTLIMQLLRDNLTLWTGSGSLRRASAPL", "modifications": "phosphoserine at Ser16 of the HSPB6 peptide (RRApS16APL)", "notes": "three extra residues left at the N terminus after 3C cleavage of the hexahistidine tag; 14-3-3σ, human, C-terminally truncated (14-3-3σ∆C, residues 1-231), surface-entropy reduction mutant Clu3; flexible linker; HSPB6 peptide RRAS16APL with the natural Leu that precedes it (the Leu is told in words; Dimer through the 14-3-3σ core; also called CH1 co-expressed with PKA; 14-3-3/HSPB6 chimera CH1; …)"}, "B2": {"name": "phosphorylated linker GSGpSLRR of pCH3 (peptide)", "peptide": "GSG[pS]LRR", "notes": "GSGS linker, the Leu kept from CH1 and the first two Arg of the StARD1 peptide; the stretch that was traced in the groove; also called cross-patching peptide of pCH3; source: E. coli, as part of the C-terminal tail of chimera pCH3, phosphorylated by co-expressed PKA"}, "B3": {"name": "14-3-3σ Clu3 – Gli1 phosphopeptide chimera, phosphorylated (pCH2) (other)", "chain": "GPHMERASLIQKAKLAEQAERYEDMAAFMKGAVEKGEELSCEERNLLSVAYKNVVGGQRAAWRVLSSIEQKSNEEGSAAAGPEVREYREKVETELQGVCDTVLGLLDSHLIKEAGDAESRVFYLKMKGDYYRYLAEVATGDDKKRIIDSARSAYQEAMDISKKEMPPTNPIRLGLALNFSVFHYEIANSPEEAISLAKTTFDEAMADLHTLSEDSYKDSTLIMQLLRDNLTLWTGSGSLRRASDPAQA", "modifications": "phosphoserine at Ser640 of the Gli peptide", "notes": "three extra residues left at the N terminus after 3C cleavage of the hexahistidine tag; 14-3-3σ, human, C-terminally truncated (14-3-3σ∆C, residues 1-231), surface-entropy reduction mutant Clu3; Gli peptide RRAS640DPAQA, said to be conserved in Gli1, Gli2 and Gli3; the other grooves hold sulfate; also called 14-3-3σ fusion with Gli phosphopeptide; source: E. coli, co-expressed with His-tagged …"}, "B4": {"name": "Gli phosphopeptide (RRApS640DPAQA), as fused in pCH2 (peptide)", "peptide": "RRA[pS]DPAQA", "notes": "Gli peptide RRAS640DPAQA, said to be conserved in Gli1, Gli2 and Gli3; Tethered through GSGSL to Thr231 of 14-3-3σ Clu3; also called Gli1 phosphopeptide; Gli-derived phosphopeptide; source: E. coli, as the C-terminal part of chimera pCH2, phosphorylated by co-expressed PKA"}, "B5": {"name": "14-3-3σ Clu3 – StARD1 phosphopeptide chimera, phosphorylated (pCH3) (other)", "chain": "B3 chain with A242S, D244L, P245L, A246G, Q247S, A248R", "modifications": "phosphoserine at the second Ser of the GSGS linker (-GSGpS-); phosphorylation status of the target and neighbouring serines (RRSSLLGSR) not known", "notes": "three extra residues left at the N terminus after 3C cleavage of the hexahistidine tag; 14-3-3σ, human, C-terminally truncated (14-3-3σ∆C, residues 1-231), surface-entropy reduction mutant Clu3; StARD1 peptide around Ser57 (RRSS57LLGS); also called 14-3-3σ fusion with StARD1/BimEL phosphopeptide; source: E. coli, co-expressed with His-tagged catalytic subunit of mouse PKA, purified (subtractive …)"}},
  "key": {"[1]": {"biological_target": "the molecule itself", "assay": "SEC; analytical SEC, calibrated Superdex 200 Increase 10/300, 20 mM Tris-HCl pH 7.6, 150 mM NaCl, 0.1 mM EDTA, 3 mM β-mercaptoethanol, 1.2 mL/min; samples pre-incubated 30 min at room temperature; hydrodynamic radii from column calibration"}, "[2]": {"biological_target": "T1, 14-3-3σ∆C mutant Clu3 (core of the chimeras) (human, UniProt P31947 1-231, 75EEK77 → 75AAA77)", "T1 construct": "three extra residues left at the N terminus after 3C cleavage of the hexahistidine tag; 14-3-3σ, human, C-terminally truncated (14-3-3σ∆C, residues 1-231), surface-entropy reduction mutant Clu3; Stood in the structures joined on one chain with the peptides (m1-m3); written as a molecule of its own for the pairs core/peptide; also called 14-3-3σ Clu3; 14-3-3σ∆C-Clu3; source: E. coli, as the …", "T1 sequence": "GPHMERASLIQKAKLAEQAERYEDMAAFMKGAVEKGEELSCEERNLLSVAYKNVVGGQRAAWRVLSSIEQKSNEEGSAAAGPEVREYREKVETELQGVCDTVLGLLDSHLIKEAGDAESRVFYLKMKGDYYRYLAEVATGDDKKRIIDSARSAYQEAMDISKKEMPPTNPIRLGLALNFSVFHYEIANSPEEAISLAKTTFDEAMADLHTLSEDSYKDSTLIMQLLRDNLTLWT", "assay": "crystal structure; pCH3 (bi-directional peptide swap), 0.1 M bis-Tris-propane pH 6.5, 0.2 M (NH4)2SO4, 25% PEG 3350, 20 °C, 3.9 Å, PDB 5OMA", "conditions": "both partners purified"}, "[3]": {"biological_target": "the molecule itself", "assay": "crystal structure; pCH2 (mono-directional peptide swap), 0.1 M bis-Tris pH 6.5, 2 M (NH4)2SO4, 20 °C, 3.2 Å, PDB 5OM0"}, "[4]": {"biological_target": "T1, 14-3-3σ∆C mutant Clu3 (core of the …)", "assay": "crystal structure; pCH2 (mono-directional peptide swap), 0.1 M bis-Tris pH 6.5, 2 M (NH4)2SO4, 20 °C, 3.2 Å, PDB 5OM0", "conditions": "both partners purified"}, "[5]": {"biological_target": "the molecule itself", "assay": "crystal structure; pCH3 (bi-directional peptide swap), 0.1 M bis-Tris-propane pH 6.5, 0.2 M (NH4)2SO4, 25% PEG 3350, 20 °C, 3.9 Å, PDB 5OMA"}},
  "note": "Positions count from the first letter of the chain named. Values joined by “and” are separate entries in the source; they are usually repeats but may differ in a detail not shown here. Identical values can stand only once. Where no end group is shown, it is not given here. [ ]: non-standard residue; d: D form. pS = N[C@@H](COP(=O)(O)O)C(=O)O",
  "data": [
    {"binder": "B1", "values": [
      {"measurement": "stoichiometry N", "setting": "[1]", "result": "2 and 4"}
    ]},
    {"binder": "B2", "values": [
      {"measurement": "binding result", "setting": "[2]", "result": "binds"}
    ]},
    {"binder": "B3", "values": [
      {"measurement": "binding result", "setting": "[3]", "result": "binds"}
    ]},
    {"binder": "B4", "values": [
      {"measurement": "binding result", "setting": "[4]", "result": "binds"}
    ]},
    {"binder": "B5", "values": [
      {"measurement": "binding result", "setting": "[5]", "result": "binds"}
    ]}
  ]
}
